# Test results taken from US10705101B2, “Determination of the unbound free fatty acid profiles in biological and industrial specimens” (priority 2013, dated 2020).
# Experiment: Probe response profile / specificity for different FFAu at 1 nM
# Type: binding
# Details: FFAu giving the largest response to 1 nM of each FFAu; several listed in order of degree of specificity
# Excerpt: The abbreviations are: arachidonate (AA), docosahexaenoate (DHA), eicosapentaenoate (EPA), laurate (LAU), linoleate (LA), linolenate (LNA), myristate (MA), oleate (OA), palmitate (PA), palmitoleate (POA), stearate (SA), and vaccenate (VA).
# Examples of probes used, generally in groups of 10 or more, to determine FFAu profiles in biological samples such as blood plasma or serum from animals and humans or media from microorganisms are shown in Table 2. In the sequences presented in Table 2 and the sequence listing, amino acids are numbered from the first residue of the mature protein. The initiator methionine residue of the wild-type protein is removed by aminopeptidase activity, leaving an alanine as residue 1. Thus, counting backwards and skipping 0, the initiator methionine is at residue position −1. Specificity indicates the FFAu that gives the largest response to 1 nM of each FFAu when one FFAu dominates the profile and more than one when there is a more even distribution of specificity. Where more than one is indicated they are listed in order of degree of specificity. The abbreviations are: arachidonate (AA), docosahexaenoate (DHA), eicosapentaenoate (EPA), laurate (LAU), linoleate (LA), linolenate (LNA), myristate (MA), oleate (OA), palmitate (PA), palmitoleate (POA), stearate (SA), and vacsinate (VA). The sequences indicate mutations relative to SEQ ID NO: 1. This sequence is a mutated rat intestinal fatty acid binding protein with a Glu 131 to Asp substitution and includes a COOH-terminal affininity tag comprising […], Gly 133 and 6 histidines.
# The response profile is the fluorescence change as evaluated as (R−Ro)/Ro (ΔR/Ro) for each FFAu added as a complex of the FFA and albumin so that the FFAu concentration is clamped or buffered at 1 nM for every FFAu for which a calibration has been performed. The calculation is performed simply by rearranging equation 2 to solve for ΔR/Ro. […] However all the probes have different profiles and therefore complementary specificities for different FFAu. Abbreviations are as in Table 2.
row,Molecule,Specificity
1,"L33P3 F9: acrylodan-labeled mutant FABP probe: M18L, I23L, G31N, L72W, A73T, D74A, R106A, Q115E, Y117V (protein, UniProt P02693 2-132, looked up, variant M18L I23L G31N L72W A73T D74A R106A Q115E Y117V, acrylodan label, acrylodan-labeled mutant FABP probe: M18L, I23L, G31N, L72W, A73T, D74A, R106A, Q115E, Y117V) Fatty acid-binding protein, …: AFDGTWKVDRNENYEKFLEKMGLNVVKRKLNAHDNLKLTITQEGNKFTVKESSNFRNIDVVFELGVDFAYSWTAGTELTGTWTMEGNKLVGKFKRVDNGKELIAVAEISGNELIETVTYEGVEAKRIFKKE",DHA/AA
2,"L35P22E8: acrylodan-labeled mutant FABP probe: M18L, I23L, G31N, L36R, L38V, L72W, A73T, D74A, R106A, Q115E, Y117V (protein, UniProt P02693 2-132, looked up, variant M18L I23L G31N L36R L38V L72W A73T D74A R106A Q115E Y117V, acrylodan label, acrylodan-labeled mutant FABP probe: M18L, I23L, G31N, L36R, L38V, L72W, A73T, D74A, R106A, Q115E, Y117V) Fatty acid-binding protein, …: AFDGTWKVDRNENYEKFLEKMGLNVVKRKLNAHDNRKVTITQEGNKFTVKESSNFRNIDVVFELGVDFAYSWTAGTELTGTWTMEGNKLVGKFKRVDNGKELIAVAEISGNELIETVTYEGVEAKRIFKKE",DHA/AA
3,"L36P15 B7-1: acrylodan-labeled mutant FABP probe: M18L, I23V, G31N, F55R, L72W, A73T, D74A, R106A, Q115E, Y117V (protein, UniProt P02693 2-132, looked up, variant M18L I23V G31N F55R L72W A73T D74A R106A Q115E Y117V, acrylodan label, acrylodan-labeled mutant FABP probe: M18L, I23V, G31N, F55R, L72W, A73T, D74A, R106A, Q115E, Y117V) Fatty acid-binding protein, …: AFDGTWKVDRNENYEKFLEKMGVNVVKRKLNAHDNLKLTITQEGNKFTVKESSNRRNIDVVFELGVDFAYSWTAGTELTGTWTMEGNKLVGKFKRVDNGKELIAVAEISGNELIETVTYEGVEAKRIFKKE",HA/AA/EPA
4,"L44P1 C10: acrylodan-labeled mutant FABP probe: Y14L, M18L, I23L, G31N, L72G, A73T, D74A, R106W, Q115W, Y117L (protein, UniProt P02693 2-132, looked up, variant Y14L M18L I23L G31N L72G A73T D74A R106W Q115W Y117L, acrylodan label, acrylodan-labeled mutant FABP probe: Y14L, M18L, I23L, G31N, L72G, A73T, D74A, R106W, Q115W, Y117L) Fatty acid-binding protein, …: AFDGTWKVDRNENLEKFLEKMGLNVVKRKLNAHDNLKLTITQEGNKFTVKESSNFRNIDVVFELGVDFAYSGTAGTELTGTWTMEGNKLVGKFKRVDNGKELIAVWEISGNELIWTLTYEGVEAKRIFKKE",PA/OA/SA
5,"L37P1 C3: acrylodan-labeled mutant FABP probe: Y14W, M18L, M21I, I23L, G31N, L38V, L72W, A73T, D74A, R106A, Q115E, Y117V (protein, UniProt P02693 2-132, looked up, variant Y14W M18L M21I I23L G31N L38V L72W A73T D74A R106A Q115E Y117V, acrylodan label, acrylodan-labeled mutant FABP probe: Y14W, M18L, M21I, I23L, G31N, L38V, L72W, A73T, D74A, R106A, Q115E, Y117V) Fatty acid-binding protein, …: AFDGTWKVDRNENWEKFLEKIGLNVVKRKLNAHDNLKVTITQEGNKFTVKESSNFRNIDVVFELGVDFAYSWTAGTELTGTWTMEGNKLVGKFKRVDNGKELIAVAEISGNELIETVTYEGVEAKRIFKKE",AA/DHA/EPA
6,"L35P10C4: acrylodan-labeled mutant FABP probe: M18L, G31N, L36Y, L72W, A73T, D74A, R106A, Q115E, Y117V (protein, UniProt P02693 2-132, looked up, variant M18L G31N L36Y L72W A73T D74A R106A Q115E Y117V, acrylodan label, acrylodan-labeled mutant FABP probe: M18L, G31N, L36Y, L72W, A73T, D74A, R106A, Q115E, Y117V) Fatty acid-binding protein, …: AFDGTWKVDRNENYEKFLEKMGINVVKRKLNAHDNYKLTITQEGNKFTVKESSNFRNIDVVFELGVDFAYSWTAGTELTGTWTMEGNKLVGKFKRVDNGKELIAVAEISGNELIETVTYEGVEAKRIFKKE",DHA/AA
7,"L9BP6 H3: acrylodan-labeled mutant FABP probe: L38Y, F62W, L72A, Y117A (protein, UniProt P02693 2-132, looked up, variant L38Y F62W L72A Y117A, acrylodan label, acrylodan-labeled mutant FABP probe: L38Y, F62W, L72A, Y117A) Fatty acid-binding protein, …: AFDGTWKVDRNENYEKFMEKMGINVVKRKLGAHDNLKYTITQEGNKFTVKESSNFRNIDVVWELGVDFAYSAADGTELTGTWTMEGNKLVGKFKRVDNGKELIAVREISGNELIQTATYEGVEAKRIFKKE",SA/OA/PA
8,"L10P7 A4: acrylodan-labeled mutant FABP probe: Y14L, M18L, G31Y, A73L, Y117A (protein, UniProt P02693 2-132, looked up, variant Y14L M18L G31Y A73L Y117A, acrylodan label, acrylodan-labeled mutant FABP probe: Y14L, M18L, G31Y, A73L, Y117A) Fatty acid-binding protein, …: AFDGTWKVDRNENLEKFLEKMGINVVKRKLYAHDNLKLTITQEGNKFTVKESSNFRNIDVVFELGVDFAYSLLDGTELTGTWTMEGNKLVGKFKRVDNGKELIAVREISGNELIQTATYEGVEAKRIFKKE",AA/DHA/OA/EPA/LA
